Data: the nanobody polyreactivity screen of Harvey et al. (2022)

Assay: yeast display, Sf9 membrane polyspecificity reagent, FACS + sequencing; frameworks hold sequencing errors
How it was run: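 Nanobodies came from a synthetic yeast display library in Saccharomyces cerevisiae BJ5465, induced with galactose for 36–48 hours and stained for 1 hour at 4 °C with 10% biotinylated, detergent-solubilized Sf9 membrane reagent. Cells were enriched on streptavidin microbeads and then FACS-sorted, with low and high (top ~1%) gates set on anti-HA fluorescence for expression and streptavidin fluorescence for reagent binding. Each polyreactivity label reflects the gate a clone came from. Genes were amplified by colony PCR, sequenced by MiSeq 2 × 250 and filtered by CDR length.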

Row | Sequence | polyreactivity (PSR sort gate)
1 | QVQLVESGGGLVQAGGSLRLSCAASGSIFESYAMGWYRQAPGKERELVADITYDGGITYYADSVKGRFTISRDNAKNTVYLQLNSLKPEDTAVYYCAAQAWWGYYSRGPMDYWGQGTQVTVSS | low polyreactivity
2 | QVQLVESGGGLVQAGGSLRLSCAASGSIFESYVMGWYRQAPGKERELVAAISSGGSTYYADSVKGRFTISRDNAKNTVYLQMNSLKPEDTAVYYCAANYDGGYLDYEAGYRLEYDYWGQGTQVTVSS | low polyreactivity
3 | QVQLVESGGGLVQAGGSLRLSCAASGSIFEVYAMGWYRQAPGKERELVAAISGNGGSTYADSVKGRFTISRDNAKNTVYLQMNSLKPEDTAVYYCAAVPYGYGLASDSIFDYWGQGTQVTVSS | high polyreactivity
4 | QVQLVESGGGLVQAGGSLRLSCAASGSIFEYNAMGWYRQAPWKERELVAAITSGGSTNYADSVKGRFTISRDNAKNTVYLQMNSLKPEDTAVYYCAKKYRSVPKYLYRITKYNYWGQGTQVTVSS | low polyreactivity
5 | QVQLVESGGGLVQAGGSLRLSCAASGSIFEYYAMGWYRQAPGKERELVASITSSGTTYYADSVKGRFTISRDNAKNTVYLQMNSLKPEDTAVYYCAAYFAYLDSYVTYEYDYWGQGTQVTVSS | low polyreactivity
6 | QVQLVESGGGLVQAGGSLRLSCAASGSIFEYYAMGWYRQAPGKERELVATITGTDSTYYADSVKGRFTISRDNAKNTVYLQMNSLKPEDTADCAADRAASRPDYDYWGQGTQVTVSS | low polyreactivity
7 | QVQLVESGGGLVQAGGSLRLSCAASGSIFEYYAMGWYRTAPGKERELVAAISSGGPTYYADSVKGRFTISRDNAKNTVYLQMNSLKPEDSAVYYCNADLWYPDYDYWGQGTQVTVSS | low polyreactivity
8 | QVQLVESGGGLVQAGGSLRLSCAASGSIFFEYAMGWSRQAPGKERELVASINRGGGSTYYSDSVKGRFTISRDNAKNTVYLQMNSLKPEDTAVSYCAAQWKYRQSYLDYYSGQGTQVTVSS | low polyreactivity
9 | QVQLVESGGGLVQAGGSLRLSCAASGSIFFEYAMGWYRQAPGKERELVASINRGGGSTYYADSVKGRFTISRDNAKNTVYLQMNSLKPEDTAVYYCAAQWKYRQSYLDYYWGQGTQVTVSS | low polyreactivity
10 | QVQLVESGGGLVQAGGSLRLSCAASGSIFFFNAMGWYRQAPGKEREMVAAISESGTSTYYADSVKGRFTISRDNAKNTVYLQMNSLKPEDTAVYYCNVVFRYAYGVYYTPEFYYWGQGTQVTVSS | low polyreactivity
11 | QVQLVESGGGLVQAGGSLRLSCAASGSIFFGNAMGWYRQAPGKERELVAASTTSGGSTYYADSVKGRFTISRDNAKNTVYLQMNSLKPEDTAVYYCNAEYRTGVDGPRSRGGDYWGQGTQVTVSS | low polyreactivity
12 | QVQLVESGGGLVQAGGSLRLSCAASGSIFFGNDKGWYRQAPGKERELVAGISNGGRTNYADSVKGRFTISRDNAKNTVYLQMNSLKPEDTAVYYCAKHPVYIYWSRVLVGYYSWGQGTQVTVSS | low polyreactivity
13 | QVQLVESGGGLVQAGGSLRLSCAASGSIFFGNVMGWYRQAPGKERELVAVISWSGGTTYYADSVKGRFTISRDNAKNTVYLQMNSLKAEYTAVYYCNARYLRRGDYWGQGTQVTVSS | low polyreactivity
14 | QVQLVESGGGLVQAGGSLRLSCAASGSIFFHYAMGWYIQAPGKERELVAAITWDGGSTYYADSVKGRFTISRDNAKNTVYLQMNSLKPEDTAVYYCNADQDLSTDEDYWGQGTQVTVSS | low polyreactivity
15 | QVQLVESGGGLVQAGGSLRLSCAASGSIFFIYDMGWYRQAPGKERELVADITSGGGSTFYADSVKGRFTISRDNAKNTVYLQMNSLKPEDTAVYYCATDDHDQPGGQLYITEVNYWGQGTQVTVSS | low polyreactivity
16 | QVQLVESGGGLVQAGGSLRLSCAASGSIFFLYAMGWYRQAPGKERELVAAISRSGVSTYYADSVKGRFTISRDNAKNTVYLQMNSLKPEDTAVYYCNRRVPVTRSRYYYWGQGTQVTVSS | high polyreactivity
17 | QVQLVESGGGLVQAGGSLRLSCAASGSIFFPYAMGWYRQAPGKERELVAAIDTSSGSTYSADSVKGRFTISRDNAKNTVYLQMNSLKPEDTAVYYCAREALQYPGLKYNYWGQGTQVTVSS | low polyreactivity
18 | QVQLVESGGGLVQAGGSLRLSCAASGSIFFQYAMGWYRQAPGKERELVAAISTGGSTNYADSVKGRFTISRDNAKNTVYLQMNSLKPEETAVYYCAAYSRYKGYQYDYWGQGTQVTVSS | low polyreactivity
19 | QVQLVESGGGLVQAGGSLRLSCAASGSIFFRNAMGWYRQAPGKERELVAAITSGGSTYYADSVKGRFTISRDNAKNTVYLQMNSLKPEDTAVYYCNREFWRSSSYRYYYWGQGTQVTVSS | high polyreactivity
20 | QVQLVESGGGLVQAGGSLRLSCAASGSIFFRNAMGWYRQAPGKERELVATIDWSGGYTDYADTVKGRFTISRDNAKNTVYLQMNSLKPEETAVYYCATGRYDRYYNFWYYYWGQGPQVTVSS | high polyreactivity
21 | QVQLVESGGGLVQAGGSLRLSCAASGSIFFRYAMGWYRQAPGKERELVAAISDSGGTTYYADSVKGRFTISRDNAKNTVYLQMNSLKPEDTAVYYCAARFIYYSNRYYRYREFNYWGQGTQVTVSS | high polyreactivity
22 | QVQLVESGGGLVQAGGSLRLSCAASGSIFFVYGMGWYRQAPGKERELVAAISGGITNYADSVKGRFTISRDNAKNTVNLQMNSLKPEDTAVYYCAAYTPSYGGRDYWGQATQVTVSS | low polyreactivity

Row | Sequence | polyreactivity (PSR sort gate)
23 | QVQLVESGGGLVQAGGSLRLSCAASGSIFFWNDMGWYRQAPGTERELVAAISWSGGSTSYADSVKGRFTISRDNAKNTVYLQMNSLKPEDTAVYYCAADYYYRTLYGYIGMDYWGQGTQVTVSS | low polyreactivity
24 | QVQLVESGGGLVQAGGSLRLSCAASGSIFFYYAMGWYRQAPGKERELVAAIDFNGGNTYYADSVKGRFTISRDNAKNTVYLQMNSLKPEDTAVYYCAAEWEGTYTTVPDEFNYWGQGTQVTVSS | high polyreactivity
25 | QVQLVESGGGLVQAGGSLRLSCAASGSIFFYYAMGWYRQAPGKERELVAAINWSGVNTYYADSVKGRFTISRDNAKNTVYLQMNSLKPEDTAVYYFNAVVSLTSYGYLGYLFDYWGQGTLVTVSS | low polyreactivity
26 | QVQLVESGGGLVQAGGSLRLSCAASGSIFFYYAMGWYRQAPGKERELVAAISGGGRTNYADSVKGRFTISRDNAKNTVYLQMNSLKPEDTAVYYCAADPVYWYSPMDYWGQGTQVTVSS | low polyreactivity
27 | QVQLVESGGGLVQAGGSLRLSCAASGSIFFYYAMGWYRQAPGKERELVAAITSSDGDTYYADSVKGRFTISRDNAKNTVYLQMYSLKPEDTAVYYCAAESGPSPPITTSSNEYWGQGTLVTVSS | low polyreactivity
28 | QVQLVESGGGLVQAGGSLRLSCAASGSIFFYYTMGWYRQAPGKEREFVAAISGSGGSTYYADSVKGRFTISRDNAKNTVYLQMNSLKPEDTAVYYCAAGLRLDLGAMYYWGQVTQVTVSS | low polyreactivity
29 | QVQLVESGGGLVQAGGSLRLSCAASGSIFGAYAMGWYRQAPGKERELVAAISGSGTSTYYADSVKGRFTISRDNAKNTVYLQMNSLKPEDTAVYYCATAKLTWRSQGLDYWGQGTQVTVSS | low polyreactivity
30 | QVQLVESGGGLVQAGGSLRLSCAASGSIFGAYAMGWYRQAPGKERELVAVIRWGGGSTYADSVKGRFTISRDNAKNTVYLQMNSLKPEDTAVYYCNRDKSWADLYSHAYDYWGQGTQVTVSS | low polyreactivity
31 | QVQLVESGGGLVQAGGSLRLSCAASGSIFGDNAMGWYIQAPGKERELVAAITSSGVRTYYADSVKGRFTISRDNAKNTVYLQMNSLKPEDTAVYYCNADRFRRIRWYAITRSDYWGQGTQVTVSS | high polyreactivity
32 | QVQLVESGGGLVQAGGSLRLSCAASGSIFGDYVMGWYRQAPGKERELVAAITSATSTYYADSVKGRFTISRDNAKNTVYLQINSLKPEDTAVYYCNADATYPLWPNIWYDYDYWGQGTQVTVSS | low polyreactivity
33 | QVQLVESGGGLVQAGGSLRLSCAASGSIFGEYAMGWYRQAPGKERELVAAITFSTGSTYYADSVKGRFTISRDNAKNTVYLQMNSLKPEDTAVYYCAAESYTYYWYDYEYWGQGTQVTVSS | high polyreactivity
34 | QVQLVESGGGLVQAGGSLRLSCAASGSIFGFNAMGWYRQAPGIERELVAAINNGGSTNYADSVKGRFTISRENANNTVYLQMNSLKPEDTADYYCAARLNYIRRGYWGQGTQVTVSS | high polyreactivity
35 | QVQLVESGGGLVQAGGSLRLSCAASGSIFGFYAMGWYRQAPGKERELVASISSSGDSTYYADSVKGRFTISRDNAKNTVYLQMNSLNPEDTAVYYCAAVVYDIYGYEFDYWGQGTQVTVSS | low polyreactivity
36 | QVQLVESGGGLVQAGGSLRLSCAASGSIFGGNAMGWYRQAPGKERELVAAITSTVSTNYADSVKGRFTISRDNAKNTVYLQMNSLKPEVTAVYYCATDSSNVEGDYWGQGTQVTVSS | low polyreactivity
37 | QVQLVESGGGLVQAGGSLRLSCAASGSIFGGYAMGWYRQAPGKERELVAAISWSSSSTYYADSVKGRFTISRDNAKNTVYLQMNSLKPEDTAVYYCNAKPFYDYTEYDYWGQGTQVTVSS | low polyreactivity
38 | QVQLVESGGGLVQAGGSLRLSCAASGSIFGGYAMGWYRQAPGKERELVAAITSSGGRTYYADSVKGRFTISRDNAKNTVYLQMNSLKPEDTAVYYCAASPNYYYYYPMYYWGQGTQVTVSS | high polyreactivity
39 | QVQLVESGGGLVQAGGSLRLSCAASGSIFGGYAMGWYRQAPGKERELVATISYSGDSTYYADSVKGRFTISRDHAKNTVYLQMNSLKPEDTAVDYCATESNGSPYKGDYWGQGTQVTVSS | low polyreactivity
40 | QVQLVESGGGLVQAGGSLRLSCAASGSIFGGYTMGWYRQAPGKERELVAAISRRGGNTYYADSVKGRFTISRDNAKNTVYLQMNSLKPEDTAVYYCNARPTTYNYDYWGQGTQVTVSS | high polyreactivity
41 | QVQLVESGGGLVQAGGSLRLSCAASGSIFGGYTMGWYRQAPGKERELVAAISRRGGNTYYADSVKGRFTISRDYAKNTVYLQMNSLKPDDTAVYFCAKRYASTSGYWGQGTQVTVSS | high polyreactivity
42 | QVQLVESGGGLVQAGGSLRLSCAASGSIFGHNTMGWYRQAPVKERELVAAISSGSRTNSADTVKGRFTISRDNAKNTVYLQMKSLKPEDTAVDYCATKVYSSRYRGYGYWGQGPQVTVSS | high polyreactivity
43 | QVQLVESGGGLVQAGGSLRLSCAASGSIFGINAMGWYRQAPGKERELVAAITNSGANTYYADSVKGRFTISRDNAKNTVYLQMNSLKPEDTAVYYCATDFIGVIYDYWGQGTQVTVSS | low polyreactivity
